# Measurements reported in the supplement of paper PMC11865577.
# Experiments:
# Test in all cases: pull-down binding Z-score (relative to library population); higher = stronger binding
# Details in all cases: RNA library: Library-2
# [1] = test system: TO-3-N3 (biotin conjugate)
# Procedure, shortened: (§1)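 Cy5- or Cy3-end-labelled RNA library (1 μg) was heat-folded in phosphate/NaCl/KCl buffer and incubated 60 min at 25 °C with streptavidin beads carrying 100 pmol biotin-conjugated small molecule. After three washes, bound RNA was eluted in hot SDS and hybridised 20 h at 55.5 °C to a DNA barcode microarray. Binding was scored by subtracting a beads-only control, averaging barcoded replicate probes after dropping highest and lowest, and converting to a Z-score against library mean and standard deviation.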
# [2] = test system: TO-3-N3-2 (biotin conjugate)
# Procedure, shortened: as §1
# TO-N3 (biotin conjugate) = test system: TO-N3 (biotin conjugate)
# Procedure, shortened: as §1
# [3] = test system: TO-N3-2 (biotin conjugate)
# Procedure, shortened: as §1
sequence,measurement,setting,value
CAAUGUGUGAUAUCAGACAACUACUAUUUGUAGUUGAAGUUGUUGAUAAGUACUUUG [DMSMaPseq_invitro_SARS-CoV-2_Motif_268],pull-down binding Z-score,[1],-0.462
same,pull-down binding Z-score,[2],-0.487
same,pull-down binding Z-score,TO-N3 (biotin conjugate),0.105
same,pull-down binding Z-score,[3],-0.156
CACAAGGCAGAUGGGCUAUAUAAACGUUUUCGCUUUUCCGUUUACGAUAUAUAGUCUACUCUUGUG,pull-down binding Z-score,[1],-0.81
same,pull-down binding Z-score,[2],-0.5
same,pull-down binding Z-score,TO-N3 (biotin conjugate),-0.787
same,pull-down binding Z-score,[3],-0.455
CACAGAAAAGUACUGUG [SHAPE_invivo_SARS-CoV-2_Motif_52],pull-down binding Z-score,[1],1.15
same,pull-down binding Z-score,[2],0.427
same,pull-down binding Z-score,TO-N3 (biotin conjugate),0.891
same,pull-down binding Z-score,[3],-0.279
CACAUCAGUAGUCUUACUCUCAGUUUUGCAACAACUCAGAGUAGAAUCAUCAUCUAAAUUGUG [DMSMaPseq_invitro_SARS-CoV-2_Motif_209],pull-down binding Z-score,[1],-0.736
same,pull-down binding Z-score,[2],-0.352
same,pull-down binding Z-score,TO-N3 (biotin conjugate),-0.843
same,pull-down binding Z-score,[3],-0.741
CACAUCUAGGUUUCGUCCGGGUGUG [SARS-CoV-2-Conserved-Structured-16_Interval-158-277_Motif_2],pull-down binding Z-score,[1],0.468
same,pull-down binding Z-score,[2],-0.459
same,pull-down binding Z-score,TO-N3 (biotin conjugate),0.254
same,pull-down binding Z-score,[3],-0.319
CACAUGAAGGUAAAACAUUUUAUGUUUUACCUAAUGAUG,pull-down binding Z-score,[1],-0.659
same,pull-down binding Z-score,[2],-0.743
same,pull-down binding Z-score,TO-N3 (biotin conjugate),-0.73
same,pull-down binding Z-score,[3],-0.256
CACCAAGACUACUUACUGGUG [IAV_invivo_PB1_2_Motif_22+IAV_invivo_PB1_2_Motif_22],pull-down binding Z-score,[1],-0.338
same,pull-down binding Z-score,[2],-0.501
same,pull-down binding Z-score,TO-N3 (biotin conjugate),-0.706
same,pull-down binding Z-score,[3],-1.37
CACCACUUAACCGAAAUUAUGUCUUUACUGGUUAUCGUGUAACUAAAAACAGUAAAGUACAAAUAGGAGAGUACACCUUUGAAAAAGGUGACUAUGGUG,pull-down binding Z-score,[1],-0.803
same,pull-down binding Z-score,[2],-0.419
same,pull-down binding Z-score,TO-N3 (biotin conjugate),-0.623
same,pull-down binding Z-score,[3],-0.309
CACCAUCUGGUG [DMSMaPseq_invitro_SARS-CoV-2_Motif_188],pull-down binding Z-score,[1],0.319
same,pull-down binding Z-score,[2],-0.158
same,pull-down binding Z-score,TO-N3 (biotin conjugate),0.0701
same,pull-down binding Z-score,[3],-1.15
CACCCGCGAAGAAGCUAUAAGACAUGUACGUGCAUGGAUUGGCUUCGAUGUCGAGGGGUG,pull-down binding Z-score,[1],0.929
same,pull-down binding Z-score,[2],-0.23
same,pull-down binding Z-score,TO-N3 (biotin conjugate),0.845
same,pull-down binding Z-score,[3],0.0562
CACGUCCAACUCAGUUUGCCUGUUUUACAGGUUCGCGACGUG,pull-down binding Z-score,[1],0.0988
same,pull-down binding Z-score,[2],-0.0582
same,pull-down binding Z-score,TO-N3 (biotin conjugate),0.0672
same,pull-down binding Z-score,[3],0.192
CACUAAAAAGUGGAAAUACCCACAAGUUAAUG,pull-down binding Z-score,[1],-0.634
same,pull-down binding Z-score,[2],-0.22
same,pull-down binding Z-score,TO-N3 (biotin conjugate),-0.552
same,pull-down binding Z-score,[3],-0.609
